Sequences and labels used below:
B1: Cell cycle serine/threonine-protein kinase CDC5/MSD2 (Saccharomyces cerevisiae), P32562 (parent)
chain: MSLGPLKAINDKQLNTRSKLVHTPIKGNTADLVGKENHFKQTKRLDPNNDHHHQPAQKKKREKLSALCKTPPSLIKTRGKDYHRGHFLGEGGFARCFQIKDDSGEIFAAKTVAKASIKSEKTRKKLLSEIQIHKSMSHPNIVQFIDCFEDDSNVYILLEICPNGSLMELLKRRKVLTEPEVRFFTTQICGAIKYMHSRRVIHRDLKLGNIFFDSNYNLKIGDFGLAAVLANESERKYTICGTPNYIAPEVLMGKHSGHSFEVDIWSLGVMLYALLIGKPPFQARDVNTIYERIKCRDFSFPRDKPISDEGKILIRDILSLDPIERPSLTEIMDYVWFRGTFPPSIPSTVMSEAPNFEDIPEEQSLVNFKDCMEKSLLLESMSSDKIQRQKRDYISSIKSSIDKLEEYHQNRPFLPHSLSPGGTKQKYKEVVDIEAQRRLNDLAREARIRRAQQAVLRKELIATSTNVIKSEISLRILASECHLTLNGIVEAEAQYKMGGLPKSRLPKIKHPMIVTKWVDYSNKHGFSYQLSTEDIGVLFNNGTTVLRLADAEEFWYISYDDREGWVASHYLLSEKPRELSRHLEVVDFFAKYMKANLSRVSTFGREEYHKDDVFLRRYTRYKPFVMFELSDGTFQFNFKDHHKMAISDGGKLVTYISPSHESTTYPLVEVLKYGEIPGYPESNFREKLTLIKEGLKQKSTIVTVD
partner: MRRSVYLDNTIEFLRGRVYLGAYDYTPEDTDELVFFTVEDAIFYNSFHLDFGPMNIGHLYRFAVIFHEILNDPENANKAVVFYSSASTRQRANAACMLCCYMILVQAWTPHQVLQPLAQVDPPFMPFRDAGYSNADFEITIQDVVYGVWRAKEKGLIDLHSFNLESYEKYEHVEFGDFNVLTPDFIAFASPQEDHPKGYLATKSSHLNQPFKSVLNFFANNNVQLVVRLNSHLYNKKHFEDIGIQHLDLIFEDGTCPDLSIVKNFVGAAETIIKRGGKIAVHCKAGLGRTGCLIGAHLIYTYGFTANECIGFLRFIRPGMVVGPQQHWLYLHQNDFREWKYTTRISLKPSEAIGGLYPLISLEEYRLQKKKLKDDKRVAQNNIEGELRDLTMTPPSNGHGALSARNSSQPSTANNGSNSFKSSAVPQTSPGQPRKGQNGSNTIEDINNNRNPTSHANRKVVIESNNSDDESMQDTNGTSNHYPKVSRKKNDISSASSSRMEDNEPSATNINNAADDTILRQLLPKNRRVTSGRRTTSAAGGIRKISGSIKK

The variants in this experiment derive from B1. Particulars: with cdc14_yeast CDC14, Q00684.
Regarding H641A;K643M, the “effect of a mutation on the interaction” value is on record as “decreasing interaction”.

The values above are taken from IntAct's records for PubMed 18927509.
